Assay results taken from the supplement of paper PMC9170038.

Tested on: K4 kissing-loop RNA reporter
Assay: apparent KD of K4 kissing-loop reporter; higher = weaker reporter binding
Conditions: Eterna round: R107
Procedure: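 RNA-MaP round R107: designed RNA switches with theophylline, tryptophan, arginine or FMN aptamers are transcribed on-chip within common flanks. They are titrated with a labelled K4 kissing-loop RNA reporter in RNA-MaP buffer (100 mM Tris pH 7.5, 80 mM KCl, 4 mM MgCl2), without ligand or with the indicated ligand. Median apparent KD per design.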

[1] = input ligand: theophylline 20 uM
[2] = input ligand: tryptophan 2.4 mM
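Also: bound reporter read as fluorescence of individual clusters on recovered sequencing chips by microscopy, with normalized cluster intensities fitted with a binding model.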

Sequence | apparent KD of K4 kissing-loop reporter (input ligand: FMN 200 uM) [nM] | apparent KD of K4 kissing-loop reporter (input ligand: arginine 13.2 mM) [nM] | apparent KD of K4 kissing-loop reporter (input ligand: none) [nM] | apparent KD of K4 kissing-loop reporter [1] [nM] | apparent KD of K4 kissing-loop reporter [2] [nM]
UGAUAGGACAGAAGGAGCGGAAGCUAGUCAAAGACUAGCACGUUAAUAACAGGAGUGAUGUUCCAGGUAGGUCGCUGUCCUAUCU [ArgBX 24 #SwitchBubble #StaticStem] | 126 | 118 | 136 | 118 | 113
UGUACCGAGUCAGGAUAUGGCGUCGAAAGACGAAACCAGUGAUGUUGGAAUAUCGACGAAAGUCGUCCAGAAGGGACUUGGUACU [FmnBS 17 #SwitchBubble #StaticStem #DoubleMagnetSystem] | 153 | 264 | 256 | 264 | 273
GAACGGCGGGCGGCCGCCACUGGUAUACGAGUGAUGUUCGGAUAUACGUGAUGUAAGGUAAUUAACAGGACCGGGUCAGGGCCGG [whbob_SS_Tryp_B_t20] | 278 | 208 | 239 | 294 | 238
UCCUGCAAUCUGCCACGAAAGUGGGUUGAUACCAGAGUCGAAAGACUCCCUUGGCAGCGAGUGAUGUUCGUUGCAGGUGUAUAAA [MatMod 10 - Jieux - Exclusion - Theophylline A] | 195 | 184 | 194 | 209 | 179
AUUUAGACGAGUGAUGUUCGUGUUAUUACAGAGGAUAUGCGUAAUUGCAGAAGGCUGUAUUUAUAUAUGUUAUGUGGUUUUAAAA [whbob_Ex_FMNA__2th185] | 75.1 | 98 | 77.6 | 93.8 | 63
CUUUAUCAACCAGAUACCAGCGGUUCUCUAGUUGGCUUCCGUAGUGAUGUUGCGUGGUCCCGCCCUUGGCAGCUGGCCAUGACUA [theeternabot_sameState_KL_Theo_B_5] | 1060 | 684 | 1170 | 798 | 993
UUUCGUAGAAGUGAUACCAGACUUGAAAGUGAUGUUUUCCAAUAAUUUAAAUUUUUAGCUGUCCCUUGGCAGCACAGUUUAUUUA [JR_Nu_ExcTheophyB_Sub026] | 218 | 298 | 263 | 334 | 165
ACGUAGUACGUAGGAUAUCAGAGAUCAGUUAGUGAGAUCGAGUGAUGUUCGAUCAAGUGUUCAUUUUGAGAAGGAUGUAGUAGGA [KL-SSFMN-B7] | 263 | 320 | 387 | 428 | 238
AUUUUUUUAUCAGGAUAUUAGUGAUGGUUUGUUUUGUUAGUGAUGUUGAUAUUUGUUUUAUGUAUUUAAGAAGGGAUUGAGAUGU [seesullin] | 67 | 25.3 | 44.1 | 29.2 | 48.9
AGCAGUCCAGGAUCGAAAGAUCCUGAGGUCCGAGGACCGGUACGGCCGCCACUCGGAGUGAUGUUCCGAAGACUGCAAAAUAAAA [#SwitchBubble 5] | 302 | 236 | 108 | 135 | 105
GUCCAACCUGGAGGAUAUCUGCUGUCCAGUGAUGUUGGACACUUUAGUAAAGGCCGGGUAGCCCGCAGAGAAGGCCGGAGUUGCC [Arceer] | 310 | 328 | 375 | 464 | 327
AGUAAUGAGUGAUGUUCAAAUAGUAAGGAUACCAGUAAUUCAAAAUGCCCUUGGCAGCUUAACGCUACCAAUAGAUAAAUAAUGG [Theophilline A V2 (+2A)] | 134 | 166 | 144 | 172 | 96.8
AAAUAAAACUAUGAUACCAGUCAUCACAGAGUGAUGUUUUGUGGCAUUUUAAACUUGGCAGACCCUUGGCAGCAUGAUAUAGGAG [theeternabot_sameState_KL_Theo_B_8] | 486 | 207 | 318 | 358 | 261
CUUGUACAUGCCGAGGUAGGUGCGGGUUAGCGAGGACCGGUACGGCCGCCACUCGCCAAGUGAUGUUUGGUCCUUUGGGUCGGCA | 948 | 507 | 562 | 663 | 633
GCAACUCUCAGUGAUGUUGAGUUAUCGGAAGGAGCGCGUGAAAACGCAGGUAGGUCGCCGAUACAAUGAGUUUCUCGUUGGUUGC [Arginine A K4 21] | 769 | 489 | 664 | 554 | 569
AAGGUAUCACCACAACAUCACUAAGGUGAUACCAGCAUCGAAAGAUGCCCUUGGCAGCACCAACUUGCAGUGAUGUUGCAAGUAA [(T)'-(H)'-(T1)-(T2)-(H1)-(H2)_Design9] | 417 | 310 | 365 | 438 | 366
UAUCGAGUGAUGUUCGAUGUAGUCCAUUCAGAGGAUAUAGGAUUGACUAGAAGGCUGAAACCUUCUUCGAGUGAUGUUCGAGGAU [Same State FMN A GF4] | 92.5 | 39.6 | 58.9 | 45.2 | 47.4
CUCACAGUGAUGUUGUGGGCCGAGAGUGAUACCAGCCGUAUUUGUGGCCCUUGGCAGCGCAAAAGCCGAGUGAUGUUCGAAUCGG [Same State Theophylline A GF 24] | 211 | 196 | 207 | 190 | 192
AGUGAUGUAUGGCGGUUUGUCACUUAUUAUCAGGAUAUAUAAACAAAUAGAAGGGAUGGCGGAGUGAUGUUCCGCCGGCCGCCAU [FMN A Exl V5] | 172 | 140 | 150 | 157 | 166
UGUGUUUACCUGACUCAGUGAUGUUGAGAAGGAGCGUGCAAAGGCACAGGUAGGUCGCUCAACCUAAAUUCAGGUGAGCACUAAA | 246 | 331 | 240 | 310 | 217
CCGAAGAACCAGUGAUGUUGGUUGACUAGACAGGAUAUGAGCAACAUCAGAAGGGUCUGGCUUCGGGAGUAGGUCGCGCUGACCC [Diarrebi] | 482 | 231 | 624 | 1260 | 231

Sequence | apparent KD of K4 kissing-loop reporter (input ligand: FMN 200 uM) [nM] | apparent KD of K4 kissing-loop reporter (input ligand: arginine 13.2 mM) [nM] | apparent KD of K4 kissing-loop reporter (input ligand: none) [nM] | apparent KD of K4 kissing-loop reporter [1] [nM] | apparent KD of K4 kissing-loop reporter [2] [nM]
CCGAGCCUGACGAAAGUCAGGCUCUGCGAGCGAGGACCGGUACGGCCGCCACUCGGUGCAGUGAUGUUGCAUGGCCGCAAGGCCG [#2 Exclusion - Tryptophan A Attempt #22 (HarryS)] | 156 | 223 | 240 | 261 | 312
AGGAGUGAUGUUCCUACAUAGACGGUCCGACGAGGACCGGUACGGCCGCCACUCGCGUCCCAGUGAUGUUGGGAUUCAACGUACA [Exclusion Tryptophan A Gf 15] | 120 | 150 | 139 | 149 | 122
CCUAUCUCAUACGAUACCAGUCAACGAGUGAUGUUCGAAUAAAUAAAUUUGCCAAAUAAUGACCCUUGGCAGCGUAUGGGAUAGG [Ex Theophylline B K4 15] | 299 | 313 | 329 | 302 | 247
GCGAUCUGCAUCGAUACCAGCCCAGUGAUGUUGGGCUGCUCUCCAUGGGUGCCAGACACGGGCCCUUGGCAGCGAGGUAGAGCCC [Maonzaa] | 129 | 118 | 109 | 112 | 115
GACUCAUGUAGAAGGAGCGUCAGAAGCUACAGACAUGAGUGAUGUUCAUGUUAGUUGAUCUGACAGGUAGGUCGCUACAGCAGGA [KL-SSArg B14 #analogue] | 145 | 121 | 149 | 141 | 150
GAAUUAUGUAGAAGGAGCGUUAGAAGGUAUAGGUGCGAGUGAUGUUUGGACUUGUUAAUUUGACAGGUAGGUCGCUACAGAAGGA [KL-SSArg B19 #analogue] | 496 | 281 | 499 | 379 | 451
UAGAGCAUCGCAGGAUAUCCUGCUUAACGUUGGAUUCCAGUGAUGUUGGAAAGCCGGCCUAGGGUAGGAGAAGGGCGGAUUUGAA [Edvean] | 171 | 151 | 215 | 322 | 149
GGUUCUGGAAUCGAGUGAUGUUCGGUGUUGCAGGAUAUAGAGAGAUCUAGAAGGGCAGUUUGUAUUUUAUUGAGUGAUUUUCUUU [Last Minute #3] | 84 | 83.1 | 106 | 106 | 93.4
ACUAAGGUUUUUGGAGCAGUGAUGUUGCUCCGAGGACCGGUACGGCCGCCACUCGGUGCAUGUAUGCGCUUCACUCCGGAAGUUG [Bieron] | 152 | 140 | 165 | 148 | 139
GGGAGAGCGCGAAGGAGCGCCCUGACAGGUUGCUGCCGUGGGCAGUGAUGUUGCUCAGUCCGGCAGGUAGGUCGCGUGCUCUCCC | 178 | 148 | 192 | 200 | 177
GUUCGGAUGCGGGAUACCAGCGUACCGAGCAAGCUUCGGGUAGUGAUGUUAUCUGAAUUACGCCCUUGGCAGCCCGCAUCCGGGC [clock_plus] | 265 | 234 | 285 | 212 | 256
UGAUACCAGACUGAUACCAGCAAGUGAUGUUUGCUGAUCUAAAGCAGUCAAAGACUGCCUUGCCCUUGGCAGCAGUCUGGUAUCU [TheoBX 25 #SwitchBubble #StaticStem] | 92.3 | 81.7 | 96.6 | 156 | 81.1
GAAUUAUGUAGAAGGAGCGUUAGAAGGUAUAGGUGUGAGUGAUGUUCGGAUUUGUUAAUUUGACAGGUAGGUCGCUACAGAAGGA [KL-SSArg B17 #analogue] | 435 | 267 | 242 | 132 | 106
GUACGCUCUCGAGUGAUGUUCGGUAAUCCUUAGGAUAUCGCUUUUGCGAGAAGGAAGGGAAUGAGGAAACUCGUUCUGAGUGUAC [FMN A 21] | 523 | 299 | 366 | 481 | 743
UGGACCUGACUCGAUAAGAGUCAAUGAGAUACCAGUGACGAAAGUCACCCUUGGCAGCUCACUGCCAGUGAUGUUGGUAGGUCCU [#SwitchBubble 3 #StaticStem] | 1250 | 919 | 1300 | 738 | 1070
AGAAACUUGUAUGUCGGGUGUGCGCGCGAUACCAGCCAAAUGGAUGGCCCUUGGCAGCGCAGCGAGUGAUGUUCGCCCGCUUGAC [Exclusion Theophylline A GF 22] | 251 | 239 | 302 | 354 | 232
GUAGUUGCGCAAGGAUAUUAGUUAAGUGAUGUUUGAUUCGGUAUUGUUUACGUACACUGACCCGAUUAAGAAGGUGCGGGCAGCG [theeternabot_exclusion_KL_FMN_B_50] | 604 | 582 | 580 | 343 | 369
UGACUGGACUGAAGGAGCGCUAAAACUCCUAGUGAUGUUAGGAAAACGAGACAAAGUCUCGAGCAGGUAGGUCGCAGUCUAGUCU [ArgBS 21 #SwitchBubble #StaticStem] | 142 | 119 | 131 | 148 | 128
UAAUAUAAUCUGUCGUUUACAAUAUUUAGUCAGGAUAUCGUAUAUUCGAGAAGGGACACUAUCUAGUGAUGUUAGAUAUUUCGUU [JR_ExcFMNA_Sub015] | 51 | 81.4 | 59.6 | 76.6 | 54.6
ACAGUUGCUAGUGAUACCAGACUAGCACUACGUAAUAUGUCAAGUGAUGUUUGACAACUAGUCCCUUGGCAGCGCGAUACGACUG [#11 K4 Theophylline B Same State] | 235 | 289 | 259 | 269 | 225
ACCUGUAGUGAUGUUACUGGUGGUUAGGAAGGAGCGCCCGCGUGGGCAGGUAGGUCGCCUAAGCUAUGUGGGAAACCGCAUAUUG [#14 K4 Arginine A Same State] | 75.5 | 73.8 | 76.9 | 75.3 | 93.3
